The values that follow come from paper PMC10746525, “Interaction between the mitochondrial adaptor MIRO and the motor adaptor TRAK” (The Journal of Biological Chemistry, 2023).

B3: MIRO1_(1-591) (domain or fragment, human, UniProt Q8IXI2 1-591, looked up)
chain: MKKDVRILLVGEPRVGKTSLIMSLVSEEFPEEVPPRAEEITIPADVTPERVPTHIVDYSEAEQSDEQLHQEISQANVICIVYAVNNKHSIDKVTSRWIPLINERTDKDSRLPLILVGNKSDLVEYSSMETILPIMNQYTEIETCVECSAKNLKNISELFYYAQKAVLHPTGPLYCPEEKEMKPACIKALTRIFKISDQDNDGTLNDAELNFFQRICFNTPLAPQALEDVKNVVRKHISDGVADSGLTLKGFLFLHTLFIQRGRHETTWTVLRRFGYDDDLDLTPEYLFPLLKIPPDCTTELNHHAYLFLQSTFDKHDLDRDCALSPDELKDLFKVFPYIPWGPDVNNTVCTNERGWITYQGFLSQWTLTTYLDVQRCLEYLGYLGYSILTEQESQASAVTVTRDKKIDLQKKQTQRNVFRCNVIGVKNCGKSGVLQALLGRNLMRQKKIREDHKSYYAINTVYVYGQEKYLLLHDISESEFLTEAEIICDVVCLVYDVSNPKSFEYCARIFKQHFMDSRIPCLIVAAKSDLHEVKQEYSISPTDFCRKHKMPPPQAFTCNTADAPSKDIFVKLTTMAMYPHVTQADLKSST
notes: Cloned into pRSFDuet-1; also called mitochondrial Rho GTPase 1, near full-length construct lacking the C-terminal transmembrane helix; source: E. coli ArcticExpress(DE3), purified (Ni-NTA, Strep-Tactin)
B4: MBP-TRAK1_(342-431) (domain or fragment, human, UniProt Q9UPV9 342-431, looked up)
chain: EAQEELKNLRNKTMPNTTSRRYHSLGLFPMDSLAAEIEGTMRKELQLEEAESPDITHQKRVFETVRNINQVVKQRSLTPSPMNIPGSNQS
notes: GCN4 of m5 replaced with MBP; Cloned into pMAL-c6T; source: E. coli ArcticExpress(DE3), purified (amylose, Strep-Tactin); not shown: MBP, N-terminal, kept
B7: MIRO1_(177-591) (domain or fragment, human, UniProt Q8IXI2 177-591, looked up)
chain: EEKEMKPACIKALTRIFKISDQDNDGTLNDAELNFFQRICFNTPLAPQALEDVKNVVRKHISDGVADSGLTLKGFLFLHTLFIQRGRHETTWTVLRRFGYDDDLDLTPEYLFPLLKIPPDCTTELNHHAYLFLQSTFDKHDLDRDCALSPDELKDLFKVFPYIPWGPDVNNTVCTNERGWITYQGFLSQWTLTTYLDVQRCLEYLGYLGYSILTEQESQASAVTVTRDKKIDLQKKQTQRNVFRCNVIGVKNCGKSGVLQALLGRNLMRQKKIREDHKSYYAINTVYVYGQEKYLLLHDISESEFLTEAEIICDVVCLVYDVSNPKSFEYCARIFKQHFMDSRIPCLIVAAKSDLHEVKQEYSISPTDFCRKHKMPPPQAFTCNTADAPSKDIFVKLTTMAMYPHVTQADLKSST
notes: Cloned into pETDuet-1; As purified it held 37.0% GDP and 63.0% GTP; samples exchanged with GDP or GTP were also used; also called MIRO1 EF-hands and cGTPase; source: E. coli ArcticExpress(DE3), purified (Ni-NTA, SourceQ flowthrough)

Series [1] deals with the molecule itself. In words: mass photometry; Refeyn TwoMP, 125-150 nM protein, 100 mM NaCl, 50 μM MgCl2, 50 μM GTP with 1 mM EGTA or 100 μM CaCl2.
In the series “MIRO1_(1-591)” the target is B3. In words: co-sedimentation; 5-30% glycerol gradient, proteins mixed at 4 μM each in 20 mM Hepes pH 7.5, 500 mM NaCl, 1 mM MgCl2, 1 mM CaCl2, 1 mM DTT, 0.1 μM GTP; 165,000g, 16 h, 4 °C; fractions on SDS-PAGE. The note with it: both partners purified.
Series [2] has as its target B7. In words: ITC; VP-ITC, 25 °C; ITC buffer (20 mM Hepes pH 7.5, 400 mM NaCl, 1 mM MgCl2, 5% w/v sucrose, 0.1 μM GTP) with 50 μM CaCl2; MIRO1_(177-591) in the syringe, TRAK1 construct in the cell. To be noted: both partners purified. (In general: Isothermal titration calorimetry measures the heat released or taken up as one component is titrated into another.)
The target in series [3] is B7. The series is described as follows: ITC; VP-ITC, 25 °C; ITC buffer (20 mM Hepes pH 7.5, 400 mM NaCl, 1 mM MgCl2, 5% w/v sucrose, 0.1 μM GTP) with 5 mM EGTA; the binder of each row in the syringe. The note with it: both partners purified.
The target of a further series is T1, MIRO1_(177-591) E208A (human, UniProt Q8IXI2 177-591, E208A).
T1 construct: source: E. coli ArcticExpress(DE3), purified (Ni-NTA, SourceQ flowthrough)
The description is as above. To be noted: both partners purified.

The next series has as its target T2, MIRO1_(177-591) E328A (human, UniProt Q8IXI2 177-591, E328A).
T2 construct: source: E. coli ArcticExpress(DE3), purified (Ni-NTA, SourceQ flowthrough)
The series is described as above. The note with it: both partners purified.

Series [4] concerns the target B4. In words: ITC; VP-ITC, 25 °C; ITC buffer (20 mM Hepes pH 7.5, 400 mM NaCl, 1 mM MgCl2, 5% w/v sucrose, 0.1 μM GTP) with 50 μM CaCl2; MIRO1_(177-591) in the syringe, TRAK1 construct in the cell. To be noted: both partners purified.
For series [5], the target named is B4. In words: ITC; VP-ITC, 25 °C; ITC buffer (20 mM Hepes pH 7.5, 400 mM NaCl, 1 mM MgCl2, 5% w/v sucrose, 0.1 μM GTP) with 5 mM EGTA; the binder of each row in the syringe. The note with it: both partners purified.

B1: MBP-MIRO1_(1-180) (domain or fragment, human, UniProt Q8IXI2 1-180, looked up)
chain: MKKDVRILLVGEPRVGKTSLIMSLVSEEFPEEVPPRAEEITIPADVTPERVPTHIVDYSEAEQSDEQLHQEISQANVICIVYAVNNKHSIDKVTSRWIPLINERTDKDSRLPLILVGNKSDLVEYSSMETILPIMNQYTEIETCVECSAKNLKNISELFYYAQKAVLHPTGPLYCPEEKE
notes: human MIRO1, residues 1-180 (nGTPase); Cloned into pMAL-c6T; also called nGTPase of MIRO1 fused to MBP; source: E. coli ArcticExpress(DE3), purified (Strep-Tactin, MonoQ); not shown: MBP, N-terminal, kept
In the case of B1, the binding result in series [1] was “binds”.

B2: TRAK1_(99-532) (domain or fragment, human, UniProt Q9UPV9 99-532, looked up)
chain: AERVGQMTKTYNDIDAVTRLLEEKERDLELAARIGQSLLKKNKTLTERNELLEEQVEHIREEVSQLRHELSMKDELLQFYTSAAEESEPESVCSTPLKRNESSSSVQNYFHLDSLQKKLKDLEEENVVLRSEASQLKTETITYEEKEQQLVNDCVKELRDANVQIASISEELAKKTEDAARQQEEITHLLSQIVDLQKKAKACAVENEELVQHLGAAKDAQRQLTAELRELEDKYAECMEMLHEAQEELKNLRNKTMPNTTSRRYHSLGLFPMDSLAAEIEGTMRKELQLEEAESPDITHQKRVFETVRNINQVVKQRSLTPSPMNIPGSNQSSAMNSLLSSCVSTPRSSFYGSDIGNVVLDNKTNSIILETEAADLGNDERSKKPGTPGTPGSHDLETALRRLSLRRENYLSERRFFEEEQERKLQELAEKGE
notes: Cloned into pRSFDuet-1; codon-optimised synthetic cDNA; source: E. coli ArcticExpress(DE3), purified (Strep-Tactin, Ni-NTA)
In the case of B2, in the series with MIRO1_(1-591), the binding result is “binds”. For the molecule B3, the binding result in series [1] is “binds”. B4: the equilibrium dissociation constant (Kd) in the series with MIRO1_(177-591) [2] turned out to be 2760 nM; with MIRO1_(177-591) [3], 8.77 µM. Moreover, the binding result in the series with MIRO1_(177-591) E208A and in the series with MIRO1_(177-591) E328A was “binds” in each case.

B5: MBP-TRAK1_(342-431) ^400KR^401 to AA (domain or fragment, human, UniProt Q9UPV9 342-431, looked up)
chain: EAQEELKNLRNKTMPNTTSRRYHSLGLFPMDSLAAEIEGTMRKELQLEEAESPDITHQAAVFETVRNINQVVKQRSLTPSPMNIPGSNQS
notes: source: E. coli ArcticExpress(DE3), purified (amylose, Strep-Tactin); not shown: MBP, N-terminal, kept
Regarding B5, the binding result with MIRO1_(177-591) [3] was “binds”.

B6: TRAK1_(394-434) (peptide, UniProt Q9UPV9 394-434, looked up)
peptide: PDITHQKRVFETVRNINQVVKQRSLTPSPMNIPGSNQSSAM
notes: Cloned into pMAL-c6T; also called TRAK1 peptide narrowly encompassing CR2; not shown: 6xHis-MBP, N-terminal, cleaved
Take B6: the binding result with MIRO1_(177-591) [3] is on record as “binds”.

Take B7: the figures for the “stoichiometry N” value in the series with MBP-TRAK1_(342-431) [4] and with MBP-TRAK1_(342-431) [5] were 1.11 and 1.09, respectively.

A word on the Kd: it is the concentration at which binding is half-saturated. Low values mean higher affinity, high ones lower affinity. By stoichiometry N is commonly meant the number of molecules, sites or subunits per partner or assembly.
